In the series the test system is human platelets. Put plainly: Platelet adhesion assay (pNPP test). The settings on record: human citrated PRP 45 min at 37° C.; PU = Carbothane PC3585A; PPG 468 and 728; fibrinogen-coated wells positive control; FIG. 10. It is filed as cell-based. How it is done:
• Blood collection tubes: sodium citrate Vacutainer tubes (3.2% citrate, BD Biosciences) • Non-binding 24-well and 96-well plates for suspension culture (polystyrene, Greiner Bio-One) • Spectrophotometer Spectra max PLUS 384 (Molecular Devices) • Human Fibrinogen ref 341576 (Calbiochem) • 2×pNPP buffer (0.1M citrate buffer pH5.4, 10 mM p-nitrophenylphosphate, 2% Triton X-100)
Platelet adhesion on surfaces is analysed by using the p-NitroPhenil Phosphate (pNPP) test. Values obtained with this test are directly proportional to the number of platelets adhering to the surface. The pNPP test measures the levels of alkaline and acid phosphatases released upon platelet lysis. The hydrolysis of pNPP, a substrate of these phosphatases, produces p-nitrophenol, which has a maximal absorbance at 405 nm and is proportional to the amount of platelets bound to the surface. • 1. […] 100 μl is transferred in a 96-well plate before measuring the absorbance at 405 nm in a spectrophotometer. • 10. Background readings from the PPP incubation is subtracted from the PRP reads. • 11. Numbers of platelets are determined from a calibration curve performed with increasing platelet densities. e. […]
Platelet adhesion was analysed by using the p-NitroPhenil Phosphate (pNPP) assay as described in the protocol of testing of example 10 at point b

fibrinogen: the human platelet adhesion result is “adhesion was observed”.
